Biological target: T1, rat TLR7-Flag, expressed in HEK293 cells (rat, UniProt P58681 27-1050 (mouse entry))
T1 construct: not shown: Flag tag
T1 chain: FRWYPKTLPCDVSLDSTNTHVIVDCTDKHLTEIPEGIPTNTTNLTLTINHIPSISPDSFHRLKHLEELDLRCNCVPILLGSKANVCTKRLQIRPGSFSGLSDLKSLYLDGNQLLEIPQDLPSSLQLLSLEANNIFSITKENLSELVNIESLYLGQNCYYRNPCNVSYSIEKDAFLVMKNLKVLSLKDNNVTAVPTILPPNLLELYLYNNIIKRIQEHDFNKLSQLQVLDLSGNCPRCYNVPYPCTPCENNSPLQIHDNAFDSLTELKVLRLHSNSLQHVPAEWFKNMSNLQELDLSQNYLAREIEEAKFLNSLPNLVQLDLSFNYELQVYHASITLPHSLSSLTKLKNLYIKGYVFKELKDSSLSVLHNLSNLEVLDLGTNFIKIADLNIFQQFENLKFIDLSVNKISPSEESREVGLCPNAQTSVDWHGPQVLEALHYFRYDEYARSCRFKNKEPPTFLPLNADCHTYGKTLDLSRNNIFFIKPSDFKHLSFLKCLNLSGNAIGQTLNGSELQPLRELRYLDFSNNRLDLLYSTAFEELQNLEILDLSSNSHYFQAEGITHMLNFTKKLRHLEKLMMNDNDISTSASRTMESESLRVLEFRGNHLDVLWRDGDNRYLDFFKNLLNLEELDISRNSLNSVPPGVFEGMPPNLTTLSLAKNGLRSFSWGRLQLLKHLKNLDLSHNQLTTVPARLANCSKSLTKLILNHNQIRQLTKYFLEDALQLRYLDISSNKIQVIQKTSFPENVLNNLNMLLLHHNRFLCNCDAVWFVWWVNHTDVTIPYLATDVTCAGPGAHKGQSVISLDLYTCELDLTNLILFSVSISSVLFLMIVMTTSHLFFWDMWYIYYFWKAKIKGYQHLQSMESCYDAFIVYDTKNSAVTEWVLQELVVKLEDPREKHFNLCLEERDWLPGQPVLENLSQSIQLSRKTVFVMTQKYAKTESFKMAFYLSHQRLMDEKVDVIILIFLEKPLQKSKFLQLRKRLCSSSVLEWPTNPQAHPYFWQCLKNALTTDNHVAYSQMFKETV
Assay: flow cytometry on fixed and permeabilised HEK293 cells expressing rat TLR7-Flag
Source text: The HEK293 cells expressing human TLR7 (variant 1)-Flag prepared in 8)-1, the HEK293 cells expressing human TLR7 (variant 2)-Flag prepared in 8)-2, the HEK293 cells expressing monkey TLR7-Flag prepared in 8)-3, the HEK293 cells expressing mouse TLR7-Flag prepared in 8)-4, and the HEK293 cells expressing rat TLR7-Flag prepared in 8)-5 were immobilized/subjected to membrane permeation with a Fixation and Permeabilization Solution (Becton, Dickinson and Company) and thereafter stained using huAT01_H3L2_IgG1LALA, which is one of the humanized anti-human TLR7 antibodies, and ALEXA FLUOR® 647 AffiniPure Goat anti-human IgG+IgM (H+L) (Jackson ImmunoResearch Inc.), which is the secondary antibody.
The binding of the humanized anti-human TLR7 antibody to human TLR7 was detected based on flow cytometry (Miltenyi Biotec K.K.), and the data was analyzed using software (Flowjo) which analyzes the data of flow cytometry.

B1: huAT01_H3L2_IgG1LALA antibody (antibody, V domains shown)
VH: QVQLVQSGAEVKKPGASVKVSCKASGYTFTNNWLHWVRQAPGQGLEWMGDIYPSNGRTNYAQKFQGRVTLTVDKSTSTAYMELSSLRSEDTAVYFCARERGYFDYWGQGTLVTVSS
VL: DIQMTQSPSSLSASVGDRVTITCKASQDINKYIAWYQQKPGKAPKLLIHYTSTLQPGIPSRFSGSGSGRDYTLTISSLQPEDFATYYCLQYDYLLTFGQGTKVEIKR
notes: Humanized AT01; heavy huAT01_H3_IgG1LALA, light huAT01_L2
Q: Does B1 bind?
A: Result: no binding

From patent publication US20230212306A1 (Daiichi Sankyo, published 2023)
